Measured values published in patent US20240043859A1, “HERBICIDE-RESISTANT PROTEIN, AND GENE AND USE THEREOF” (QINGDAO KINGAGROOT CHEMICAL COMPOUND CO., LTD., priority 2020, published 2024).
Entries after “also recorded” stand apart in the source; their conditions may differ.

Experiments:
[1] = Chromogenic reaction of degrading herbicides in bacteria: 2,4-D; assay type: cell-based, Escherichia coli; conditions: recombinant E. coli expressing the gene, 2,4-D added to the medium, red = phenols
Procedure, shortened: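 Colour from 2,4-D degradation was detected at A510 after 5 min at room temperature, with 4-aminoantipyrine and ferricyanide added to culture supernatant in pH 10 borate. Cultures were AAD12-expressing or empty-vector (pET15b) BL21(DE3), grown overnight at 28 °C with 0.5 mM 2,4-D, 0.1 mM IPTG and 2 mM α-ketoglutarate.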

[2] = assay type: cell-based, Escherichia coli
Arabidopsis thaliana [3] = assay: Herbicide resistance of transgenic Arabidopsis thaliana seedlings on plate medium (root growth); assay type: in vivo; conditions: Arabidopsis overexpressing the gene
Procedure, shortened: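 After 3 days of cold treatment at 4 °C, seeds were cultured at 22 °C under a 16 h/8 h light cycle on MS herbicide medium (0.3 μM 2,4-D in the screen). Root growth was scored against wild-type seedlings at one week. The material was T2 AAD-overexpressing lines (AtUbi10 promoter, MAS terminator, hygromycin marker), two events each, tested with 2,4-D, 2,4-DB sodium and MCPA.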

Arabidopsis thaliana [4] = assay: as above; assay type: in vivo; conditions: plate medium with 2,4-D (0.3 μmol)
[5] = Chromogenic reaction of degrading herbicides in bacteria: triclopyr; assay type: cell-based, Escherichia coli; conditions: recombinant E. coli expressing the gene
Experimental: To transform the plasmids to be tested, an AAD12-expressing plasmid and a blank control plasmid pET15b were respectively transformed into the protein expression E. coli BL21(DE3) strains. A monoclone was selected and inoculated in a 10 ml centrifuge tube with 3 ml LB medium, and cultivated at 37° C., 200 rpm for 6-8 hours. […] The temperature was switched to 28° C. and the cultivation continued overnight. In the next morning, 200 μL of each bacteria solution was taken and centrifuged to precipitate thallus, 180 μL of the supernatant was taken and added in a 96-well plate, and 20 μL of borate buffer of pH 10 was added. Then the mixture was added with 2 μL of 8% potassium ferricyanide and mixed well, followed by adding 2 μL of 2% 4-aminoantipyrine, and placed at room temperature for 5 min to observe the color and detect the A510 value. […]

B1: QYD53: AAD-like enzyme, SEQ ID NO. 105 (protein)
chain: MASTLSLQPLEGITFGAVATGFRIAELDEPTWQALHDAWLDHALLIFPGQFLTRDEQIAFARRFGPLEFEMAAISNVKPDGTLRLEKDNDDMMKVLKGNMGWHADSTYMPVQAKGAVFSAEVVPTIGGETGWADMRAAYEALDAATREKIDGLSAFHSLHYSQSKLGHQTQKSDGQYNGYGLHDGPVPLRPLVKTHPETGRKSLLIGRHAHNIPGMDKAESERFLDGLIAFACQPPRVYHHHWAPGDVVVWDNRCLLHQATPWDMTQPRVMWHSRIAGDPASEAGLAA
modifications: Synthetic polypeptide, QYD53, D53
Q: With B1 as the molecule, how does the “Chromogenic reaction of degrading herbicides in bacteria: 2,4-D” value (“Chromogenic reaction … 2,4-D” for short) [1] read?
A: The value was “Yes”.

Q: And the “Chromogenic reaction … 2,4-D” value ([1]; listed as D53)?
A: The value was “could degrade 2,4-D; also recorded: capable of degrading 2,4-D”.

Q: And the “Chromogenic reaction of degrading herbicides in bacteria: MCPA” value (shortened to “Chromogenic reaction … MCPA”) [2]?
A: The value was “Yes”.

Q: And the “Resistance of transgenic Arabidopsis thaliana: 2,4-D” value (Arabidopsis thaliana [3])?
A: The value was “Yes”.

Q: And the “Resistance of transgenic Arabidopsis thaliana: MCPA” value (Arabidopsis thaliana [3])?
A: The value was “Yes”.

Q: And the “2,4-D resistance of T1 generation transgenic seedlings (seminal root growth)” value (shortened to “2,4-D resistance”) (Arabidopsis thaliana [4])?
A: The value was “showing tolerance to 2,4-D”.

B2: QYD55: AAD-like enzyme, SEQ ID NO. 109 (protein)
chain: MARPFDIEPLDATFGAVVRGVKVAALDDVTWRALHDAWLQYALLIFPGQHLSREAQIAFAKRFGPLEFEMAPISNVRADGSVRAEAENDDVIKVLKGNMGWHCDSTYMPVQAKGAVFSAEVVPGAGGQTGWADMRAAYDALDGDLRARIENLSAYHSLYYSQAKLDHRPSKSSAYSGYGFHDGPVPLRPLVKVHPETGRKSLLIGRHAHNIPGMDADESTRLLQSLVDFACRPPRIYHHHWTAGDTVVWDNRCLLHQATPWDMTQPRVMWHSRIAGDPASEAALA
modifications: Synthetic polypeptide, QYD55, D55
Q: Which results are given for B2?
A: Chromogenic reaction of degrading herbicides in bacteria: 2,4-D [1]: Yes; Chromogenic reaction of degrading herbicides in bacteria: 2,4-D ([1]; listed as D55): could degrade 2,4-D; also recorded: capable of degrading 2,4-D; Chromogenic reaction of degrading herbicides in bacteria: MCPA [2]: Yes; Resistance of transgenic Arabidopsis thaliana: 2,4-D (Arabidopsis thaliana [3]): Yes; 2,4-D resistance of T1 generation transgenic seedlings (seminal root growth) (Arabidopsis thaliana [4]): showing tolerance to 2,4-D

B3: QYD44: AAD-like enzyme, SEQ ID NO. 87 (protein)
chain: MARAFDIAPLDATFGAVVTGVKLAEVDDAGWCDLHAAWLEHALLVFPDQHLTRAQQIAFARRFGPLEFEMAAISNVRPDGSLRVESDNDDMMKILKGNMGWHADSTYMPVQAKGAVFSAEVVPGSGGQTGFADMRAAYDALDENLKARVETLQARHSLHYSQSKLGHETKTADGEYSGYGLHDGPVPLRPLVKVHPETGRKSLLIGRHAHAIPGMERAESERLLQQLIDFACQPPRVYHHDWAPGDAVLWDNRCLLHQATPWDMTQKRIMWHSRIAGDPASETALAGAGP
modifications: Synthetic polypeptide, QYD44, D44
Q: For B3, which “Chromogenic reaction … 2,4-D” value [1] is on record?
A: The value was “Yes”.

Q: What about the “Chromogenic reaction … 2,4-D” value ([1]; listed as D44) of the same molecule?
A: The value was “could degrade 2,4-D; also recorded: capable of degrading 2,4-D”.

Q: And the “Chromogenic reaction … MCPA” value [2]?
A: The value was “Yes”.

Q: What about the “Resistance of transgenic Arabidopsis thaliana: 2,4-D” value (Arabidopsis thaliana [3]) of the same molecule?
A: The value was “Yes”.

Q: And the “Resistance of transgenic Arabidopsis thaliana: MCPA” value (Arabidopsis thaliana [3])?
A: Its value is “Yes”.

Q: What about the “2,4-D resistance” value (Arabidopsis thaliana [4]) of the same molecule?
A: The value was “showing tolerance to 2,4-D”.

B4: QYD52: AAD-like enzyme, SEQ ID NO. 103 (protein)
chain: MTRTLDIEPIDATFGAVVRGIKVAEVDDETFRALYDAWLQYALLIFPDQHLQRDQQIAFAKRFGPLEFEMTAISNVRSDGTLRLEKDNDDVMKILKGNMGWHHDSTYMPVQAKGAVFSAEEVPTIGGRTGFADMRAAYDALDPAMKARIEGLNAYHSLHYSQGKVGHQTRKADGEYSGYGLHDGPVPLRPLVKTHPETGRKSLLAGRHAHNIPGLSQEASDSLLRELIDFACQPPRIYHHDWTPGDAVVWDNRCLMHQATPWDMTQRRIMWHSRIAGDPASESSLAA
modifications: Synthetic polypeptide, QYD52, D52
Q: Which “Chromogenic reaction … 2,4-D” value [1] does the source give for B4 here?
A: Its value is “Yes”.

Q: What about the “Chromogenic reaction … 2,4-D” value ([1]; listed as D52) of the same molecule?
A: The value was “could degrade 2,4-D; also recorded: capable of degrading 2,4-D”.

Q: What about the “Chromogenic reaction … MCPA” value [2] of the same molecule?
A: Its value is “Yes”.

Q: What about the “Resistance of transgenic Arabidopsis thaliana: 2,4-D” value (Arabidopsis thaliana [3]) of the same molecule?
A: Its value is “Yes”.

Q: What about the “2,4-D resistance” value (Arabidopsis thaliana [4]) of the same molecule?
A: Its value is “showing tolerance to 2,4-D”.

B5: QYD56: AAD-like enzyme, SEQ ID NO. 111 (protein)
chain: MARTFDVQPLDATFGAVISGVKLAALDDETWRELYATWLQYALLVFPGQHLSRDQQIAFARRFGPLEFEIIALSNVKSDGTIRSEVENDDVIKVLKGNMGWHADSTYMPVQAKGAVFTAEVVPSVGGQTGWADMRAAYDALDGATRQKVEQLSAYHSLHYSQSKLGHQHKPGSAYSGYGFHDGPVPLRPLVKTHPETGRKSLLIGRHAHNIPGMDKDESARFLEDLVASACQPPRIYHHTWAAGDAVVWDNRCLLHQATPWDMTQPRVMWHSRIAGDPLSEAALG
modifications: Synthetic polypeptide, QYD56, D56
Q: With B5 as the molecule, how does the “Chromogenic reaction … 2,4-D” value ([1]; listed as D56) read?
A: Its value is “could degrade 2,4-D; also recorded: capable of degrading 2,4-D”.

Q: And the “Chromogenic reaction … MCPA” value [2]?
A: The value was “Yes”.

Q: What about the “Resistance of transgenic Arabidopsis thaliana: 2,4-D” value (Arabidopsis thaliana [3]) of the same molecule?
A: The value was “Yes”.

Q: And the “2,4-D resistance” value (Arabidopsis thaliana [4])?
A: Its value is “showing tolerance to 2,4-D”.

B6: QYD30: AAD-like enzyme, SEQ ID NO. 59 (protein)
chain: MALSLTPLTPGFVAEASGLDLTRPLDAAAVRTIEQAMDDYAVLVFRNQPLDQDQQIRFAQGFGPLDLGLRKVKGGAHRFDHAELADISNVTVDGSVAGRDHAKIVGNIANQLWHSDSSFQRPRAKYSMLSAVVVPQDGGQTEFADLRAAYDHLPDGMKAAIGDLQAVHYALHSRFLLGDTEYTQAQRDALPAVRWPLVQTDPRSGRKILFVGIHACEVVGMTVAEGRMLLLDLLEHATQREFVYRHHWRVGDLVMWDNTATLHRGRRFDLAQRRELRRATTEEVRLSAEARAAA
modifications: Synthetic polypeptide, QYD30, D30
Q: What does the source list for B6?
A: Chromogenic reaction of degrading herbicides in bacteria: Triclopyr [5]: Yes; Chromogenic reaction of degrading herbicides in bacteria: Triclopyr ([5]; listed as D30): slight degradation; Chromogenic reaction of degrading herbicides in bacteria: 2,4-D [1]: Yes; Chromogenic reaction of degrading herbicides in bacteria: 2,4-D ([1]; listed as D30): could degrade 2,4-D; also recorded: capable of degrading 2,4-D; Chromogenic reaction of degrading herbicides in bacteria: MCPA [2]: Yes; Resistance of transgenic Arabidopsis thaliana: 2,4-D (Arabidopsis thaliana [3]): Yes

B7: QYD51: AAD-like enzyme, SEQ ID NO. 101 (protein)
chain: MARTLDIEPIDATFGAVVRGIKVAEVDDETFRALYDAWLEYALLIFPDQHLKRDQQIAFAKRFGPLEFEMTAISNVRSDGTLRLEKDNDDVMKVLKGNMGWHHDSTYMPVQAKGAVFSAEEVPTIGGRTGFADMRAAYDALDPAMKARIEGLNAYHSLHYSQGRVGHQTKKSDGEYSGYGLHDGPVPLRPLVKTHPETGRKSLLAGRHAHNIPGLAQEESDRLLRELIDFACQPPRIYHHDWTPGEAVVWDNRCLMHQATPWDMTQRRIMWHSRIAGDPASESARPQP
modifications: Synthetic polypeptide, QYD51, D51
Q: What does the source list for B7?
A: Chromogenic reaction of degrading herbicides in bacteria: 2,4-D [1]: Yes; Chromogenic reaction of degrading herbicides in bacteria: 2,4-D ([1]; listed as D51): could degrade 2,4-D; also recorded: capable of degrading 2,4-D; Chromogenic reaction of degrading herbicides in bacteria: MCPA [2]: Yes; Resistance of transgenic Arabidopsis thaliana: 2,4-D (Arabidopsis thaliana [3]): Yes; Resistance of transgenic Arabidopsis thaliana: MCPA (Arabidopsis thaliana [3]): Yes; 2,4-D resistance of T1 generation transgenic seedlings (seminal root growth) (Arabidopsis thaliana [4]): showing tolerance to 2,4-D

B8: QYD57: AAD-like enzyme, SEQ ID NO. 113 (protein)
chain: MPQHFDVAPVDATFGAVVTNLKLANLDEPAFRELYATWLEHALLIFPGQFLTREQQIAFARRFGALEFEMAAISNVKSDGTLRREADNDDVVKILKGNMGWHADSTYMPLQAKGAVFSAKVVPSARGETGWADMRAAYDALDAAVRDRVERLSAYHSLHYSQAKAGFQHKDKKSEYSGYGLHDGPVPLRPLVKTHPETGRKSLLIGRHAHNIPGMEPEESERLLDGLVEFACQAPRTYHHSWKPGEAVIWDNRCLLHRAMPWDMTEPRIMWHSRIAGDPASEAAIN
modifications: Synthetic polypeptide, QYD57, D57
Q: What does the source list for B8?
A: Chromogenic reaction of degrading herbicides in bacteria: 2,4-D [1]: Yes; Chromogenic reaction of degrading herbicides in bacteria: 2,4-D ([1]; listed as D57): could degrade 2,4-D; also recorded: capable of degrading 2,4-D; Chromogenic reaction of degrading herbicides in bacteria: MCPA [2]: Yes; Resistance of transgenic Arabidopsis thaliana: 2,4-D (Arabidopsis thaliana [3]): Yes; Resistance of transgenic Arabidopsis thaliana: MCPA (Arabidopsis thaliana [3]): Yes; 2,4-D resistance of T1 generation transgenic seedlings (seminal root growth) (Arabidopsis thaliana [4]): showing tolerance to 2,4-D
